Substitutions are numbered along the chain they refer to.
Tests used:
Assay in all cases: fluorescence polarization; 5 mM Mg2+; FP: 20 mM HEPES-KOH pH 7.5, 200 mM NaCl, 5 mM MgCl2, 0.01 mg/ml E. coli total tRNA, 0.01% NP-40, 10 pM probe, 25 C; EMSA: 20 mM HEPES-KOH pH 7.5, 200 mM NaCl, 5
RsAgo Y463A/K467A = target: T1, RsAgo Y463A/K467A (Rhodobacter sphaeroides (ATCC 17025D-5), UniProt A4WYU7 1-777, Y463A;K467A)
T1 sequence: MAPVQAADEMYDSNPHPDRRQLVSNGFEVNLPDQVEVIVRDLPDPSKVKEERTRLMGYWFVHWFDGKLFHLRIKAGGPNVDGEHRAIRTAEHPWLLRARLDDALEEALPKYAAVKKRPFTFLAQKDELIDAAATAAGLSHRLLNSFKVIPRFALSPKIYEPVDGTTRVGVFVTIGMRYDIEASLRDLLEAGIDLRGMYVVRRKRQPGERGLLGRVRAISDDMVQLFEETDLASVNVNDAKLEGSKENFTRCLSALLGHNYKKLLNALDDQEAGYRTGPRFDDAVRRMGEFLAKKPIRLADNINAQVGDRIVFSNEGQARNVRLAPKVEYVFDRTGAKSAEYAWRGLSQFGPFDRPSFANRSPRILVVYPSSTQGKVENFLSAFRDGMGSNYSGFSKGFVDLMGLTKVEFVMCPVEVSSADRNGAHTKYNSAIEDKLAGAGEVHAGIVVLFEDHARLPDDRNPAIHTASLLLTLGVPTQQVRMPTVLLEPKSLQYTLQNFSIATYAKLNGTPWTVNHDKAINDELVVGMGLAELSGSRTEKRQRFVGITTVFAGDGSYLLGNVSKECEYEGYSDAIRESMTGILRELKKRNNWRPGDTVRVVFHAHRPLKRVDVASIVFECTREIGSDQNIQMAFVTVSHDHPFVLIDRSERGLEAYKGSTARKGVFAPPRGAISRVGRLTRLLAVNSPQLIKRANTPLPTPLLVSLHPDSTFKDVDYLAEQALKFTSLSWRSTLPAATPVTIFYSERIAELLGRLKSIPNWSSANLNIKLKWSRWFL

RsAgo delL777 = target: T2, RsAgo delL777 (Rhodobacter sphaeroides (ATCC 17025D-5), UniProt A4WYU7 1-776, del777-777)
T2 sequence: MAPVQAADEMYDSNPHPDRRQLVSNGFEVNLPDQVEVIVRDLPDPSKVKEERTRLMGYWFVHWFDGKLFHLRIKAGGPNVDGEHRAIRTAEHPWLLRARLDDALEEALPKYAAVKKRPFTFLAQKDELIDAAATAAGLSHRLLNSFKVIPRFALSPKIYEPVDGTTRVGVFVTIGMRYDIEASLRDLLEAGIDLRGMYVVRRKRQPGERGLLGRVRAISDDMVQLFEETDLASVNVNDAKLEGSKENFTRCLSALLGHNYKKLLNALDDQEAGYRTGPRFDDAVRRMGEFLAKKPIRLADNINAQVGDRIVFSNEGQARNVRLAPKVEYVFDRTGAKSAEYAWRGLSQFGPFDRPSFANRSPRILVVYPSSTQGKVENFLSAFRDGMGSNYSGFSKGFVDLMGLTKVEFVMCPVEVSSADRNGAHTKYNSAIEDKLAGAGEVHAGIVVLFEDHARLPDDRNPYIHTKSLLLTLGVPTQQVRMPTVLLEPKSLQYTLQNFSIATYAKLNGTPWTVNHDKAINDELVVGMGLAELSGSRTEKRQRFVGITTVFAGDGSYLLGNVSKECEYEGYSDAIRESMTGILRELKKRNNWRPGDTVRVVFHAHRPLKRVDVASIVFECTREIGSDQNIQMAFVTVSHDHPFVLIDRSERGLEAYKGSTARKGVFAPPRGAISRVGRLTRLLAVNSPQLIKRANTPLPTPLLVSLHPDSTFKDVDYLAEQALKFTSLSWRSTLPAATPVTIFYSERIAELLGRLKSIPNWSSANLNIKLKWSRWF

RsAgo WT = target: T3, RsAgo WT (Rhodobacter sphaeroides (ATCC 17025D-5), UniProt A4WYU7 1-777)
T3 sequence: T1 sequence with A463Y, A467K

UUACAACCUACUACCUCG (ssRNA, 5'-phosphate) [5'P-RNA (5'U-RNA), FAM]
Kd (RsAgo Y463A/K467A): 1700 ± 123 nM
Kd (RsAgo delL777): 38.7 ± 2.1 nM
Kd (RsAgo WT): 0.91 ± 0.06 nM

— publication PMC4919518
